This is an account of results in US20200362047A1 (CRESCENDO BIOLOGICS, published 2020).

The target of assay [1] is T1, human CD137-human Fc chimeric protein (Acro Biosystems cat no. 41B-H5258) (human, UniProt Q07011 24-186).
T1 construct: Bought protein; The Octet Protein G and Biacore experiments name no catalogue number; also called human CD137Fc recombinant protein; human CD137-Fc recombinant protein; not shown: human IgG1 Fc tag
The assay can be described thus: HTRF binding assay. The procedure: (§1) Binding to human CD137Fc recombinant protein (Acro Biosystems 41B-H5258), rhesus CD137Fc recombinant protein (Sino Biologicals cat no. 90847-K02H) and mouse CD137Fc protein (Acro Biosystems 41B-M5258) was measured using an HTRF Binding assay format. All reagents and serially diluted VH were prepared in assay buffer containing PBS, 0.1% BSA and 0.4M Potassium Fluoride. Samples or assay buffer (non-specific binding) were incubated with 0.5 nM human, rhesus or mouse CD137, 1 nM Anti human-Fc Cryptate PAb (Cisbio cat. no. 61HFCKLB) and 20 nM anti His-D2 (CisBio cat no 61HISDLA) in black 384-shallow well assay plates for a minimum of 3 hours at room temperature. Time-resolved fluorescent emission at 620 nm and 665 nm was measured following excitation at 337 nm on the BMG PHERAstar plate reader. The HTRF ratio were calculated ((665 nm emission/620 nm emission)*10000) and the data corrected for (non-specific binding) to give the specific binding signal. VH bound to human and rhesus CD137 but not to mouse CD137 protein.

The target of assay [2] is T2, rhesus CD137Fc recombinant protein (Sino Biologicals cat no. 90847-K02H) (rhesus; human, UniProt H9Z8K9 24-186).
T2 construct: Bought protein; also called rhesus CD137-human IgG1 Fc tagged protein; not shown: human IgG1 Fc tag
T2 sequence: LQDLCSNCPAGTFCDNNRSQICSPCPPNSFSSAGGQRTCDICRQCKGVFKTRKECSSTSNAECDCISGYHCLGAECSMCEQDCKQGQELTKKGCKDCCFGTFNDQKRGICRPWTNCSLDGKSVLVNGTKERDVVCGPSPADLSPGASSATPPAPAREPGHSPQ
The assay can be described thus: HTRF binding assay. The procedure: as §1
In general terms: Time-resolved FRET reads energy transfer from a long-lived donor to a nearby acceptor.

Assay [3] deals with T3, mouse CD137Fc protein (Acro Biosystems 41B-M5258) (mouse, UniProt P20334 24-187).
T3 construct: Bought protein; also called mouse CD137 protein; not shown: Fc tag, detected with anti human-Fc
T3 sequence (looked up): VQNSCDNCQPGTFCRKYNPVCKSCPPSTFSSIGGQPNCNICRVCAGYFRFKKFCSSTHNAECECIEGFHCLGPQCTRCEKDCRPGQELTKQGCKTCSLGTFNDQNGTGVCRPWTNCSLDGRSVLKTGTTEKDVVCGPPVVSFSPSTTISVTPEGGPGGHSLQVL
The assay can be described thus: HTRF binding assay. As to the method: as §1

Assay [4] concerns the target T1, human CD137-human Fc chimeric protein …. Description: BLI (Octet RED384), CD137-Fc on Protein G sensors, 1:1 model. The procedure: Binding kinetics of purified VH, bivalent VH and trivalent VH molecules were measured on a ForteBio Octet RED 384 instrument. CD137-Fc tagged protein was diluted to 3 μg/ml in kinetics buffer (0.1% BSA, 0.02% Tween, 1×PBS) and coupled to Protein G biosensors (ForteBio cat no. 18-5082) via the Fc tag. VH were serially diluted (typically 1:2 dilution series starting with 50 nM, VH at the highest concentration) and binding to the CD137-Fc-coupled Protein G biosensors measured. Binding kinetics were determined from the (blank subtracted) sensor gram trace using 1:1 binding models and ForteBio Octet Data Analysis 9.0 software. Example kinetic and binding affinity data obtained is shown Table 10 (monovalent VH) and FIG. 1 (bivalent and trivalent molecules).
In general terms: In BLI a coated tip is dipped into the sample, and binding shifts an interference pattern.

The target is the same in assay [5]. The assay can be described thus: BLI (Octet RED384), CD137-Fc amine-coupled to AR2G sensors, 1:1 model. The procedure:
The kinetics of monovalent and bispecific Humabody VH were determined on a ForteBio Octet RED 384 instrument. To study the interaction with the antigens, CD137-Fc tag protein (Acro Biosystems cat no. 41B-H5258) or PSMA-his (R&D Systems cat no. 4234-ZN) was immobilised onto AR2G biosensors (ForteBio cat no. 18-5082) by amine coupling. Monovalent VH and bispecific molecules were serially diluted (typically 1:2 dilution series starting between 12-25 nM, at the highest concentration) in kinetics buffer (0.1% BSA, 0.02% Tween, 1×PBS) and binding to the immobilised proteins was studied during the association and dissociation phases. PSMA binding was measured using 180 seconds association and 600 seconds dissociation phases. CD137 binding was measured 180 seconds association and 600 seconds dissociation phases. Reference subtracted data were fitted to a 1:1 binding model using the ForteBio Octet Data Analysis software.

B1: Humabody VH 1.18 (VHH)
VH: EVQLVESGGGLVQPGGSLRLSCAASGFTFSTHWMNWARQAPGKELEWVANINQDGSEKYYVDSVEGRFTISRDNANNSLYLQMNSLRAEDTAVYYCARGGVGYGDSHFGMDVWGLGTTVTVSSHHHHHH
notes: human single VH domain
As a reminder, the EC50 is the concentration needed to bring the measured effect to its halfway point. Usually Kd stands for a measure of binding affinity in units of concentration. By koff is commonly meant the rate constant with which the complex falls apart. By kon is commonly meant a measure of how fast the partners come together. Read a high kon as fast association. Take B1: the 50% effective concentration (EC50) in assay [1] is 0.45 nM. Further, the EC50 in assay [2] was 5.1 nM. Further, in assay [3], the binding result is on record as “no binding”. In assay [4], this molecule showed an equilibrium dissociation constant (Kd) of 0.12 nM, an off-rate (koff) of 0.000625 s⁻¹ and a kon of 5.18e+06 M⁻¹ s⁻¹.

B2: Humabody VH 1.78 (VHH)
VH: QVQLVESGGGLVQPGGSLRLSCAATGFTLSNYWMNWVRQAPGKGLEWVANINQDGSERYYVDSVKGRFTISRDNAKNSLYLQMSSLRAEDTAVYFCARGGEGYGVDHYGLDVSGQGTTVTVSSHHHHHH
notes: human single VH domain
For the molecule B2, it took 0.21 nM to reach a half-maximal effect in assay [1] (EC50). In assay [2], the EC50 was found to be 0.14 nM. Moreover, in assay [3], the binding result is “no binding”. Further, in assay [4], the Kd came out at 0.72 nM, the koff was found to be 0.000219 s⁻¹ and the kon came out at 304000 M⁻¹ s⁻¹.

B3: Humabody VH 1.1 (VHH)
VH: EVQLVESGGGLVQPGGSLRLSCAASGFTFSSHWMTWFRQAPGKGLEWVAHIKEDGSEKYYEDSVEGRFTVSRDNAKNSVYLQMNSLRAEDTAVYYCARGGDGYSDSHFGVDVWGQGTTVTVSSHHHHHH
notes: human single VH domain; also called single domain antibody 1.1
For B3, a half-maximal response in assay [1] (EC50) required 0.26 nM. In addition, the EC50 in assay [2] is 1.1 nM. In assay [3], the binding result is “no binding”. In assay [4], this molecule yielded a dissociation constant (Kd) of 0.34 nM, a koff of 0.00034 s⁻¹ and an on-rate (kon) of 989000 M⁻¹ s⁻¹. In addition, in assay [5], the Kd was found to be 0.52 nM, the koff was determined as 0.00036 s⁻¹ and the kon was determined as 710000 M⁻¹ s⁻¹.

B4: Humabody VH 1.52 (VHH)
VH: EVQLVESGGGLVQIGGSLRLSCAASGFTFSKYWMIWVRQAPEKGLEWVANINQDGSEKYYVDSVEGRFTISRDNANNSLFLQMNSLRAEDTAVYYCARGGDDYSISHFGMDVSGQGTRVTVSSHHHHHH
notes: human single VH domain
In turn, B4 showed an EC50 in assay [1] of 0.48 nM. Also, the EC50 in assay [2] turned out to be 0.45 nM. In addition, the binding result in assay [3] is given as “no binding”. In assay [4], this molecule displayed a Kd of 3.2 nM, a koff of 0.000963 s⁻¹ and a kon of 300000 M⁻¹ s⁻¹.

B5: Humabody VH 1.11 (VHH)
VH: EVQLVESGGGLVQPGGSLRLSCEASGFTFSDYWMNWARQAPGKGLEWVANIKEDGSEKYYVDSVEGRFTISRDNAKNSTYLQMNSLRAEDTAVYYCARGGAGYSMSHYGMDVWGQGTTVTVSSHHHHHH
notes: human single VH domain
B5 returned an EC50 in assay [1] of 0.58 nM. Further, in assay [2], the EC50 is 6.8 nM. Besides, in assay [3], the binding result is listed as “no binding”. In assay [4], this molecule had a dissociation constant Kd of 2.5 nM, an off-rate (koff) of 0.00148 s⁻¹ and a kon of 596000 M⁻¹ s⁻¹.

B6: Humabody VH 2.1 (VHH)
VH: EVQLVESGGGLVKPGGSLRVSCAASGFTFSDYYMSWFRQAPGKGLEWVSYISGSGDIIDYADSVKGRFTISRDNAKNSLYLQMNNLRAEDTAVYHCAREDSRLTGTTDFDNWGQGTLVTVSSHHHHHH
notes: human single VH domain
In assay [1], B6 returned an EC50 of 3.7 nM. For the same molecule, the binding result in assay [3] is reported as “no binding”. In assay [4], this molecule came in with a Kd of 2.9 nM, a koff of 0.00388 s⁻¹ and a kon of 1.35e+06 M⁻¹ s⁻¹. In assay [5], the Kd stood at 6.7 nM, the koff amounted to 0.0052 s⁻¹ and the kon came out at 770000 M⁻¹ s⁻¹.

B7: Humabody VH 2.8 (VHH)
VH: EVQLVESGGGLVKPGGSLRLSCAASGFAFSDYYMSWFRQAPGKGLEWVSHISGSGTTIDYADSVKGRFTISRDNAKNSLYLQMNSLRAEDTAVYHCAREDSRMPGTTDFDNWGQGTLVTVSSHHHHHH
notes: human single VH domain
Molecule B7 came in with an EC50 in assay [1] of 3.1 nM. For the same molecule, the EC50 in assay [2] turned out to be 1.6 nM. Besides, in assay [3], the binding result is on record as “no binding”. In assay [4], this molecule showed a Kd of 5.3 nM, a koff of 0.00616 s⁻¹ and a kon of 1.17e+06 M⁻¹ s⁻¹.

B8: Humabody VH 2.14 (VHH)
VH: EVQLVESGGGLVKPGGSLRLSCAASGFTFSDYYMTWFRQAPGKGLEWISYISGSGDTIDYAESVKGRFTISRDNAKNSLYLQMNSLRAEDTAVYYCAREDIRMPGTTDFDHWGQGTLVTVSSHHHHHH
notes: human single VH domain
In turn, B8 registered an EC50 in assay [1] of 1.2 nM. Moreover, the concentration giving a half-maximal response (EC50) in assay [2] was determined as 1.3 nM. The binding result in assay [3] is listed as “no binding”. In assay [4], this molecule displayed a Kd of 0.96 nM, a koff of 0.00157 s⁻¹ and a kon of 1.63e+06 M⁻¹ s⁻¹.

B9: Humabody VH 2.9 (VHH)
VH: EVQLVESGGGLVKPGGSLRLSCAASGFTFSDYYMTWFRQAPGKGLEWISYISGSGDTIDYAESVKGRFTISRDNAKNSLYLQMNSLRAEDTAVYHCAREDSRIAGTTDFDNWGPGTLVTVSSHHHHHH
notes: human single VH domain
On to B9, for which the EC50 in assay [1] was determined as 1.3 nM; in assay [2], 1.2 nM. For the same molecule, the binding result in assay [3] was “no binding”.
